Data taken from patent US20240317847A1 (Bayer, published 2024).
Residue numbers refer to the chain shown, from its start. Read-outs that look alike come from different tables or passages of the source. One block for each binder: values may come before it.

Key:
murine IL-11 [1] = target: T1, murine IL-11 (mouse, UniProt P47873 22-199); test: Tri-complex ELISA, mIL-11 + mIL-11Ra-Fc + mgp130-Fc, inhibition of complex formation
T1 construct: Invigate recombinant protein; biotinylated when immobilized in the Di-complex ELISA; also called mIL11; mIL-11
T1 sequence: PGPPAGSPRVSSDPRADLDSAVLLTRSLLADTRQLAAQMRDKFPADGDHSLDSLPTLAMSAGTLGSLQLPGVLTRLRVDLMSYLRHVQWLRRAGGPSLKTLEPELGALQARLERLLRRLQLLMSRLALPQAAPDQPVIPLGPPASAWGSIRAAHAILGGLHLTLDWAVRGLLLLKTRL
Description: In a first step, 25 μl of goat anti human IgG (Sigma, #12136), diluted 1:1000 in coating buffer (Candor, #121125) was coated on the plate at 4° C. overnight. Next day, the plate was washed one time with 50 μl PBST and then blocked with 50 μl SmartBlock (Candor, #113125) for one hour at room temperature (RT). […] After three additional washes of the coated and blocked microtiter plate with PBS-T, 25 μl of each mixture were added and the assay plate was incubated for one hour at room temperature. After three additional washes, anti-mouse-gp130 biotinylated antibody (R&D, #BAF468) or anti-human gp130 biotinylated antibody (R&D, #BAF228), both 1:1000 in 10% SmartBlock PBS-T, was added and incubated for 1 hour at RT. After three additional washes, a Streptavidin-Peroxidase conjugate (Sigma, #S5512) 1:1000 in SmartBlock PBS-T was added and incubated for one hour at room temperature. After a final three washes, AmplexRed (Fisher Scientific, A12222), 1/1000 in PBS, 0,003% H₂O₂, was added as substrate and incubated for 15 min at RT in the dark. Then, the fluorescence was measured with a plate reader at 535/595 nm. Signals from dose responses were used to calculate IC50 values using GraphPad Prism software. Efficacy was calculated as [(signal measured at lowest antibody concentration−signal measured at the highest antibody concentration)×100] divided by (signal measured at lowest antibody concentration−signal measured in the absence of antibody at an IL11 concentration of 8.2E-11 [M]).
(§1) IgG converted antibodies were subjected to the experimental assay procedure described in Example 19 and IC50 [M], respectively efficacy (%) were calculated accordingly.

human IL2Ra = target: T2, human IL2Ra (human, UniProt P01589 22-240, limits assumed); test: ELISA on coated IL2Ra, signal ratio to isotype control TPP-10159 at 3.3E-7 M antibody
T2 construct: coated on the ELISA plate; also called IL-2 receptor alpha
T2 sequence (looked up): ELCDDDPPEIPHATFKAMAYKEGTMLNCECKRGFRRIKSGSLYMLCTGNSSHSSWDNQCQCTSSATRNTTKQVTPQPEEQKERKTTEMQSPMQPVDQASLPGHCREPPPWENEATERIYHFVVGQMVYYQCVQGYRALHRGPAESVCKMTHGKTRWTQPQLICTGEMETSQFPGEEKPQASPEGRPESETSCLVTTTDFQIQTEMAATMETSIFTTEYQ
Description: IL2RA (Peprotech, Germany, #200-02RC) was coated at 1 or 0 μg/ml (buffer only control) in 30 μl coating buffer (Candor, #113500) per well on a 384 well microtiter plate (Maxisorb, Nunc, #460518) over night at 4-8° C. After two washes with 50 μl/well washing buffer (PBS+0.05% Tween, pH 7.4), the plates were incubated for two hours at room temperature with 50 μl/well SmartBlock (Candor, #113500). After blocking, the plates were washed three times with washing buffer. Then, a dilution series of the respective antibody (1E-7 [M] down to 2E-13 [M]) in PBS+0.05% Tween, 10% SmartBlock were added in 30 μl to the microtiter plate and incubated for 90 min at room temperature. After three additional washes, 30 μl anti mouse IgG HRP-conjugated antibody (Biotechne, HAF007), diluted 1:1000 in PBS+0.05% Tween (pH 7.4), were added per well and incubated for one hour. After three additional washes, a mixture of Amplex red (Invitrogen, #12222, 10 mM stock solution in DMSO) 1:1000 diluted in PBS and H2O2 (30%, Merck, #107209)) diluted 1:10000 in PBS were added as substrate with 30 μl per well and incubated for 20 min in the dark. Relative fluorescence was measured with a microtiter plate reader at 535/590 nm.
IgG converted antibodies TPP-were tested for binding to IL2Ra as described in Example 20. The ratios of the signals obtained at an antibody concentration of 3.3E-7 [M] for IgG converted antibody versus the isotype control TPP-10159 were calculated and are shown in Table E22.

human IL-11 [2] = target: T3, human IL-11 (human, UniProt P20809 22-199); test: Tri-complex ELISA, hIL-11 + mIL-11Ra-Fc + hgp130-Fc, inhibition of complex formation
T3 construct: Invigate recombinant protein; biotinylated when immobilized in the Di-complex ELISA; also called hIL11; hIL-11
T3 sequence: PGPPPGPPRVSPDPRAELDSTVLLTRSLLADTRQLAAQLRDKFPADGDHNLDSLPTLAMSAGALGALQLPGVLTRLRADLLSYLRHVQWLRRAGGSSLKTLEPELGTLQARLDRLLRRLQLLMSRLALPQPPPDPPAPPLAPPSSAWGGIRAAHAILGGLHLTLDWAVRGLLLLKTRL
Description: In the Tri-complex ELISA format IL-11 antibodies are tested for their ability to inhibit the formation of a complex consisting of murine or human gp130-Fc fusion protein, with murine or human IL-11, and a murine IL11RA-Fc fusion protein. The assay format was adapted according to FIG. 18 (a, b), depending on whether murine or human IL-11 IgG antibodies were tested.
as §1

human IL-11 [3] = target: T3, human IL-11; test: cell-based or functional assay
murine IL-11 [4] = target: T1, murine IL-11; test: cell-based or functional assay
cynomolgus IL-11 = target: T4, cynomolgus IL-11 (cynomolgus, UniProt P20808 22-199); test: cell-based or functional assay
T4 sequence: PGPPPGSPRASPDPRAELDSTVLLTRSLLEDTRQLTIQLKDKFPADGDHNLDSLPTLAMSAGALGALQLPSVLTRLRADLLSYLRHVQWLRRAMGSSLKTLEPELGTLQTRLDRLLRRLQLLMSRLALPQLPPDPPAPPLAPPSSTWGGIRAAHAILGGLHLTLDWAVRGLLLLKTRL

human IL-11 [5] = target: T3, human IL-11; test: cell-based or functional assay; remark: listed apart in the source
rat IL-11 = target: T5, rat IL-11 (rat, UniProt Q99MF5 22-199); test: cell-based or functional assay
T5 sequence: T1 sequence with S50N, L84F, G94A, V137A, I138V

murine IL-11 [6] = target: T1, murine IL-11; test: cell-based or functional assay; remark: listed apart in the source

- Efficacy (%) (murine IL-11 [1]): 85.7%
- IC50 (murine IL-11 [1]): 0.092 nM
- Antibody/Isotype Control Ratio of IL-2Ra Binding Signals (human IL2Ra): 0.7 ratio
- Efficacy (%) (human IL-11 [2]): 85.7%
- IC50 (human IL-11 [2]): 1.8 nM
B1: TPP-29521 (antibody, mouse IgG1)
heavy: QVQLVESGGGVVQPGRSLRLSCAASGFTFSHYDMHWVRQAPGKGLEWVAVISYEGSNKFYADSVKGRFTISRDNSKNTLYLQMNSLRAEDTAVYYCARTPGFHFDYWGQGTLVTVSSAKTTPPSVYPLAPGSAAQTNSMVTLGCLVKGYFPEPVTVTWNSGSLSSGVHTFPAVLQSDLYTLSSSVTVPSSTWPSETVTCNVAHPASSTKVDKKIVPRDCGCKPCICTVPEVSSVFIFPPKPKDVLTITLTPKVTCVVVDISKDDPEVQFSWFVDDVEVHTAQTQPREEQFNSTFRSVSELPIMHQDWLNGKEFKCRVNSAAFPAPIEKTISKTKGRPKAPQVYTIPPPKEQMAKDKVSLTCMITDFFPEDITVEWQWNGQPAENYKNTQPIMDTDGSYFVYSKLNVQKSNWEAGNTFTCSVLHEGLHNHHTEKSLSHSPGK
light: QSVLTQPPSASGTPGQRVTISCSGSSSNIGSNYVSWYQQLPGTAPKLLIYYDDLRPSGVPDRFSGSKSGTSASLAISGLRSEDEADYYCSAWDDSLSGVVFGGGTKLTVLGQPKSSPSVTLFPPSSEELETNKATLVCTITDFYPGVVTVDWKVDGTPVTQGMETTQPSKQSNNKYMASSYLTLTARAWERHSSYSCQVTHEGHTVEKSLSRADCS
notes: mIgG1, Lambda

- Efficacy (%) (murine IL-11 [1]): 85.4%
- IC50 (murine IL-11 [1]): 0.11 nM
- Antibody/Isotype Control Ratio of IL-2Ra Binding Signals (human IL2Ra): 0.7 ratio
- Efficacy (%) (human IL-11 [2]): 85.4%
- IC50 (human IL-11 [2]): 2 nM
B2: TPP-29522 (antibody, mouse IgG1)
heavy: B1 heavy
light: B1 light with S35N
notes: mIgG1, Lambda

- Efficacy (%), Stat3 reporter gene assay (human IL-11 [3]): 68.6%
- IC50, Stat3 reporter gene assay (human IL-11 [3]): 8.7 nM
- Efficacy (%), Stat3 reporter gene assay (murine IL-11 [4]): 46.7%
- IC50, Stat3 reporter gene assay (murine IL-11 [4]): 28 nM
- Efficacy (%) (murine IL-11 [1]): 45.8%
- IC50 (murine IL-11 [1]): 31 nM
- Antibody/Isotype Control Ratio of IL-2Ra Binding Signals (human IL2Ra): 2.2 ratio
- Efficacy (%) (human IL-11 [2]): 45.8%
- IC50 (human IL-11 [2]): 3.4 nM
- Efficacy (%), Stat3 reporter gene assay (cynomolgus IL-11): 21.9%
- Efficacy (%), Stat3 reporter gene assay (human IL-11 [5]): 64%
- Efficacy (%), Stat3 reporter gene assay (rat IL-11): 62.2%
- IC50, Stat3 reporter gene assay (rat IL-11): 14 nM
- Efficacy (%), Stat3 reporter gene assay (murine IL-11 [6]): 88.9%
- IC50, Stat3 reporter gene assay (murine IL-11 [6]): 7.9 nM
B3: TPP-23580 (antibody, mouse IgG1, kappa)
heavy: EVQLVQSGAEVKKPGASVKISCKASGYTFTDYNMDWVKQAPGQRLEWIGDINPHNGGPIYNQKFTGRATLTVDKSASTAYMELSSLRSEDTAVYYCARGELGHWYFDVWGQGTTVTVSSAKTTPPSVYPLAPGSAAQTNSMVTLGCLVKGYFPEPVTVTWNSGSLSSGVHTFPAVLQSDLYTLSSSVTVPSSTWPSETVTCNVAHPASSTKVDKKIVPRDCGCKPCICTVPEVSSVFIFPPKPKDVLTITLTPKVTCVVVDISKDDPEVQFSWFVDDVEVHTAQTQPREEQFNSTFRSVSELPIMHQDWLNGKEFKCRVNSAAFPAPIEKTISKTKGRPKAPQVYTIPPPKEQMAKDKVSLTCMITDFFPEDITVEWQWNGQPAENYKNTQPIMDTDGSYFVYSKLNVQKSNWEAGNTFTCSVLHEGLHNHHTEKSLSHSPGK
light: DIVLTQSPASLALSPGERATLSCRASKSVSTSGYSYIHWYQQKPGQPPRLLIYLASNLDSGVPARFSGSGSGTDFTLNIHPLEEEDFATYYCQHSRDLPPTFGQGTKLEIKRADAAPTVSIFPPSSEQLTSGGASVVCFLNNFYPKDINVKWKIDGSERQNGVLNSWTDQDSKDSTYSMSSTLTLTKDEYERHNSYTCEATHKTSTSPIVKSFNRNEC
notes: also called BSN 3C6 2.2-2.1-mIgG1Kappa; BSN 3C6 (WO2019238882)
